According to the supplement of paper PMC10567573:
± gives the standard deviation.

Assay: protein stability index of a GFP-peptide fusion (GPS, HEK-293T) (PSI 1-6); higher = more stable
[1] = treatment: DMSO, c terminus: a fixed tail appended
[2] = treatment: MLN4924 1 uM, 8 h, c terminus: a fixed tail appended
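Also: 24-mer peptide tiles fused after GFP, lentivirally expressed, FACS-sorted into six equal bins by GFP/DsRed ratio, decoded by Illumina sequencing, PSI is the read-weighted mean bin number.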

Row | Sequence | protein stability index (treatment: DMSO, c terminus: native) | protein stability index (treatment: MLN4924 1 uM, 8 h, c terminus: native) | protein stability index [1] | protein stability index [2]
1 | VFGRGDNISDVSKFLEDDKWMEE [LUC7L3] | 2.4 ± 0.54 | 3.38 ± 0.96 | – | –
2 | VNSTLKELRRLFLVQDLVDSLKFA [RTN1] | – | – | 2.44 ± 0.27 | 2.4 ± 0.23
3 | FGNSEKPETMTCRLSNNQRYLFLD [ZFYVE21] | – | – | 2.44 ± 0.42 | 2.1 ± 0.54
4 | LNDISRKSEGLSGRVLRKLPFLAH [TRIP13] | – | – | 2.11 ± 0.27 | 2.57 ± 0.55
5 | PREHHGRGGMLSASAETLPAGFRV [PPFIA4] | – | – | 3.5 ± 0.44 | 3.95 ± 0.076
6 | FEPPAPGEGNSSQNSRNKRAVQGP [TNFSF13B] | – | – | 5.3 ± 0.17 | 5.45 ± 0.2
7 | QDPLKFYKKIYFCHSCQLYLPSTE [IQUB] | – | – | 1.94 ± 0.41 | 2.12 ± 0.66
8 | RTDYSGRGELSARQMHLARFLRML [RAD51] | – | – | 2.18 ± 0.42 | 2.38 ± 0.26
9 | GGVLIDRYGRRTAIILSSCLLGLG [SLC2A12] | – | – | 2.86 ± 1 | 2.74 ± 1.3
10 | ETPGCATLLPASLFVNSHPGIDRP [DCAF4] | – | – | 3.61 ± 0.3 | 3.75 ± 0.1
11 | ERAAAQARRELQAEREALQARLRD [ZBED3] | – | – | 5.27 ± 0.21 | 5.33 ± 0.22
12 | ARQATNLKVNFFFERIMKYERLAR [FBXO39] | – | – | 2.75 ± 0.82 | 2.41 ± 0.32
13 | GGRDFSAPLTISRVHAGSKAALAA [PDLIM4] | – | – | 3.59 ± 0.24 | 3.85 ± 0.27
14 | EYRQRRERNNIAVRKSRDKAKRRN [CEBPD] | – | – | 4.42 ± 0.36 | 4.426 ± 0.023
15 | TCGEGYQFRVVRCWKMLSPGFDSS [ADAMTSL2] | – | – | 2.77 ± 0.43 | 2.28 ± 0.38
16 | LEVNRLMGKLLQQPNTYADFEFLA [PKD2L1] | – | – | 2.17 ± 0.37 | 2.48 ± 0.14
17 | LEAPEDIGSTSESKDWEEVVVESM [MIA2] | – | – | 5.4 ± 0.23 | 5.58 ± 0.013
18 | VNARQKQGIYEEYEDIRRENPVGT [PTPN9] | – | – | 4.83 ± 0.37 | 4.96 ± 0.29
19 | MSLLPDKKTVHYYAELGQCSVFPA [PLK2] | – | – | 2.41 ± 0.13 | 2.44 ± 0.35
20 | GNAHLGYSLVTHIPAGARDIQIVE [ADAMTSL2] | – | – | 3.03 ± 0.34 | 3.24 ± 0.13
21 | RRENYGVPPRRATISSWRNDRMST [RBMY1A1] | – | – | 3.31 ± 0.28 | 3.43 ± 0.068
22 | LPPDALIIEYRGKFMLREQFEANG [KMT2E] | – | – | 2.57 ± 0.31 | 2.63 ± 0.18

Row | Sequence | protein stability index (treatment: DMSO, c terminus: native) | protein stability index (treatment: MLN4924 1 uM, 8 h, c terminus: native) | protein stability index [1] | protein stability index [2]
23 | LSLRQTGSPGMIYSTRYGSPKRQL [KCNAB2] | – | – | 2.98 ± 0.51 | 3.17 ± 0.31
24 | TVAGKHQDLKYISPEIMASVLNGK [CDC25A] | – | – | 3.17 ± 0.2 | 3.3 ± 0.32
25 | FTELRLLLDEEEALAKKFIDKNTQ [TRIM14] | – | – | 2.68 ± 0.53 | 3.44 ± 0.93
26 | DLEPGVLMSAQTITSETTSTTTTT [EPB41L3] | – | – | 5.19 ± 0.32 | 5.17 ± 0.11
27 | DMLREMFSDSRSNNDDDEDEDDED [TAF7L] | – | – | 5.36 ± 0.36 | 5.63 ± 0.17
28 | KEDLIIPHHHSFYDFIVTKARGKS [FAM50A] | – | – | 3.4 ± 0.095 | 3.73 ± 0.16
29 | VNPQDGTNTLTRIAENGVSERDSE [EHMT1] | – | – | 5.56 ± 0.22 | 5.51 ± 0.11
30 | TLTKQDTMLKAMFSGRMEVLTDSE [KCTD10] | – | – | 4.09 ± 0.26 | 4.32 ± 0.2
31 | LLYSEVTASSLVKINLQGDIVDRG [ADD1] | – | – | 2.85 ± 0.52 | 2.42 ± 0.42
32 | VFDAMFNGGMATTSAEIELPDVEP [BTBD1] | – | – | 4.68 ± 0.28 | 4.77 ± 0.24
33 | EKRERALEEVERAILEMKWKVRAE [ZBED2] | – | – | 3.77 ± 0.27 | 3.74 ± 0.53
34 | YSPAVMNYSIPSNVTNLEGGPGRQ [ESR2] | – | – | 3.8 ± 0.4 | 3.75 ± 0.4
35 | PDGGRADEWACELRLFGRVLERAA [P3H4] | – | – | 2.46 ± 0.3 | 2.62 ± 0.38
36 | WQSESLPVSLSASQSWHTESLPVS [BCL2L13] | – | – | 3.26 ± 0.23 | 3.35 ± 0.14
37 | HDYIVRSGERWLERYEIDSLIGKG [DYRK1B] | – | – | 2.95 ± 0.49 | 3.11 ± 0.38
38 | KTRTVFSSTQLCVLNDRFQRQKYL [NANOGP8] | – | – | 2.5 ± 0.12 | 2.67 ± 0.29
39 | HQHEEIQNVRNHIHSCFSDVTCFL [ATL3] | – | – | 2.26 ± 0.15 | 2.26 ± 0.13
40 | SEEKLALDNNASASGNATQTESGS [C10orf62] | – | – | 5.55 ± 0.15 | 5.6 ± 0.19
41 | IETLRLAKNYIWALSEILRIGKRP [NEUROD6] | – | – | 3.08 ± 0.73 | 2.65 ± 0.57
42 | FVTYVFFVFFVLLNMFLAIINDTY [PKD2L1] | – | – | 2.3 ± 0.47 | 2.26 ± 0.45
43 | PQELLQSQDFVGEKLGSGEPSHSV [ATE1] | – | – | 5.11 ± 0.17 | 5.43 ± 0.064
44 | DSVAEVAAKARDTGILIFAIGVGQ [MATN2] | – | – | 2.73 ± 0.9 | 2.64 ± 0.97
